{"source": "patent US20210340238A1", "about": "“TGFß1 INHIBITORS AND USE THEREOF” (Scholar Rock, Inc., priority 2018, published 2021)", "key": {"MBT2 tumors": {"tested_on": "MBT2 tumors", "assay": "MBT2 syngeneic bladder cancer mouse model, combination with anti-PD-1", "type": "in vivo", "details": "Ab3 10 and 30 mg/kg, Ab2 3 and 10 mg/kg, in combination with anti-PD-1", "excerpt": "This is a very aggressive and fast-growing tumor model, and is very difficult to overcome tumor progression with drug treatment.\nTreatment with isotype control was used as a control group (data not shown).\nPercent tumor growth delay (% TGD) is defined as the increase in the median time to endpoint in a treatment group compared to the untreated control, expressed as a percentage of the median time to endpoint (TTE) of the control:\nT=median TTE for treatment"}, "human proTGFβ1 C4S/R249A": {"molecular_target": "T1, human proTGFβ1 C4S/R249A (Homo sapiens, UniProt P01137, C33S/R278A)", "T1 construct": "made in house; host or cells: expi293 (kifunensine-treated), co-expressed with Ab2-Fab", "T1 sequence (P01137 30-390 C33S/R278A)": "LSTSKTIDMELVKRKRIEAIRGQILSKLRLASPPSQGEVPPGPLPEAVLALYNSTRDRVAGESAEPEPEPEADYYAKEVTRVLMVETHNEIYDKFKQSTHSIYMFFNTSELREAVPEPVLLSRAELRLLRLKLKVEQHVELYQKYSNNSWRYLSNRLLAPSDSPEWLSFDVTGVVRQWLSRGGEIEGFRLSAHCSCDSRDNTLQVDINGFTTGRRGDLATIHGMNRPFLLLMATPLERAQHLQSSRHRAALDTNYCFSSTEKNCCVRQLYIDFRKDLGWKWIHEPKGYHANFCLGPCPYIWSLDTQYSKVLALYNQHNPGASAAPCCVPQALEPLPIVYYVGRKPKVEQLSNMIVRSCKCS", "assay": "X-ray crystallography of proTGFβ1:Ab2-Fab:AbX-Fab ternary complex", "type": "binding", "details": "numbering after removal of signal sequence", "excerpt": "In this work, an uncleavable human proTGFβ1 C4S/R249A variant was used that spans residues 30-390 based on the full-length sequence of human proTGFβ1 (Uniprot ID P01137). The numbering system that will be used for the rest of this document will designate position 1 as the first amino acid residue after the removal of the signal sequence for proTGFβ isoforms. The C4S mutation renders proTGFβ1 not capable of covalent crosslinking to any known presenting molecules, e.g. LTBPs and GARP, while the R249A renders proTGFβ1 resistant to proprotein convertase/furin protease cleavage, thus maintaining proTGFβ1 in its uncleaved, proprotein form. ProTGFβ1 C4S/R249A was co-expressed with C-terminally 6×-His tagged Ab2-Fab in kifunensine-treated expi293 mammalian expression system to reduce N-linked glycosylation events. The proTGFβ1 C4S/R249A:Ab2-Fab was affinity purified, treated with endoglycosidase H and purified by gel filtration. The proTGFβ1 C4S/R249A:Ab2-Fab complex was then incubated with AbX-Fab to generate the ternary complex. The AbX Fab in this context was used as an auxiliary protein, which acts as a crystallization chaperone to increase the probability of obtaining protein crystals.\nCrystallization experiments were performed at room temperature in a sitting drop format. […]"}}, "data": [{"molecule": "Ab2: isoform-selective inhibitor of TGFβ1 activation; VH SEQ ID NO: 13, VL SEQ ID NO: 15; human IgG4 (antibody, V domains shown, human IgG4 constant regions) VH: EVQLLESGGGLVQPGGSLRLSCAASGFTFADYAMTWVRQAPGKGLEWVSAISGSGAATYFADSVKGRFTISRDNSKNTLYLQMNSLRAEDTAVYYCARVSSGHWDFDYWGQGTLVTVSS VL: DIQLTQSPSSLSASVGDRVTITCRASQSISSYLNWYQQKPGKAPKLLIYAASNLQSGVPSRFSGSGSGTDFTLTISSLQPEDFATYYCQQTYTVPLTFGGGTKVEIK", "values": [{"measurement": "Tumor growth compared to PD-1 alone", "setting": "MBT2 tumors", "result": "delayed tumor growth"}, {"measurement": "Epitope on proTGFβ1 from crystal structure", "setting": "human proTGFβ1 C4S/R249A", "result": "linear epitope formed by residues 35-43"}]}]}
